Data: PMC10794598

Experiments:
[1] = target: BY2-RBD (ER-retained receptor-binding domain of the SARS-CoV-2 S protein expressed stably in Nicotia (SARS-CoV-2) (UniProt P0DTC2)); assay: non-reducing PAGE Western blot
[2] = target: NB-RBD (ER-retained receptor-binding domain of the SARS-CoV-2 S protein expressed transiently in N. benthamiana) (SARS-CoV-2) (UniProt P0DTC2); assay: non-reducing PAGE Western blot

Row | Substance | stoichiometry N [1] | stoichiometry N [2]
1 | BY2-RBD (ER-retained receptor-binding domain of the SARS-CoV-2 S protein expressed stably in Nicotia (from UniProt P0DTC2 319-541) (domain or fragment) | 4 | –
2 | NB-RBD (ER-retained receptor-binding domain of the SARS-CoV-2 S protein expressed transiently in N. benthamiana) (from UniProt P0DTC2 319-541) (domain or fragment) | – | 4
